Results: the nanobody polyreactivity screen of Harvey et al. (2022)

Assay: yeast display, Sf9 membrane polyspecificity reagent, FACS + sequencing; frameworks hold sequencing errors
Procedure, shortened: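 Synthetic nanobody libraries on Saccharomyces cerevisiae BJ5465 were galactose-induced for 36–48 hours, stained 1 hour at 4 °C with 10% biotinylated, detergent-solubilized Sf9 membrane reagent and enriched on streptavidin microbeads. FACS then separated cells into low and high (top ~1%) gates by anti-HA (expression) and streptavidin (reagent binding) fluorescence. Genes were colony-PCR amplified, MiSeq 2 × 250 sequenced and CDR-length filtered. A clone's polyreactivity label is that of its gate of origin.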

Sequence | polyreactivity (PSR sort gate)
QVQLVESGGGLVQAGGSLRLSCAASGLTFDRYAMGWYRQAPGKERELVAAISGSGSSTYYADSAKGRFTISRDNAKNTVYLQMNSLKPEDTAVYYCAADRDLGYDTRYNYWGQGTQVTVSS | low polyreactivity
QVQLVESGGGLVQAGGSLRLSCAASGSIFLKYVMGWYRQAPGKERELVAAISFRSGSTYYADSVKGRFTISRDNAKNTVYLQMNSLKPEDTAVYYCAADAWRSYGYRAYDYWGQGTQVTVSS | high polyreactivity
QVQLVESGGGLVHAGGSLRLSCAASGRTFQWNRMVWYRQAPGKERELVATIRRGGSTNYADSVKGRFTISRDNAKNTVYLQMNSLKPEDTAVYYCAADRRYPGGWGFEYNYWGQGTQVTVSS | low polyreactivity
QHQHVESGGGLDQAGGSLRLSCAASGSTFQIYAMGWYRQAPGKERELVAAIDFSGGSTYYADSVKGRFTISRDNAKYTVYLQMNSLKQEDTAVYYCAADLALYSHFGEYEYWGQGTQVTVSS | low polyreactivity
QVQLVESCGGLVQAGGSLRLSCAASGFIFQPYAMGWYRQAPGTERELVAAITSRGGRTYYADSVKGRFTISRDNAKNTVYLQMNSLKPEDTAVYSCNAVIYACEYYYWGQGTQVTVSS | low polyreactivity
QLQLVESGGGLDQAGGSLRLRCASSARIFSGYAIGWYIKAPGKERELVAAITSRSGSTYYADSVKGRFTISRDNAKNSVYFQMNSLKPEDTAVYYCAAEYVRFYWYTSDYWGQGTQVTVSS | low polyreactivity
QVQLVESGGGLVQAGGSLRLSCAASGSIFKPYAMGWYRQAPGKERELVAAISTRGSSTYYADSVKGRFTISRDNAKNTVYLQMNSLIPEDTAVYYCAKRRYLWGYEYDSWGQGTQVTVSS | high polyreactivity
QVQLVESGGGLVQAGGGLRLSCAASGTFKRNAMGWYRQAPGKERELVATITRTGSTTYADSVKGRFTISRDNAKNTVYLQMNSLKPEDTAVYYCNRVTKEYGLRQYYYWGQGTQVTVSS | low polyreactivity
QVQLVESGGGLVQAGGSLRLSCAASGRTFRKYAMGWYRQAPGKERELVAAITTSGARTYYADSVKGRFTISRDNAKNTVYLQMNSLKPEDTAVYYCNAVIPYYGIEFDYWGQGTQVTVSS | high polyreactivity
QVKLVESGGGLVQAGGSLRLSCAASGFTFSYYAMGWYRQAPGKERELVAAISYSGSATYYADSVKVRFTISRDNAKNTVYLQLNSLIPEDTAVYYCNARGATRGLTAYTYDSWGQGTQVTVSS | high polyreactivity
QVQLVESGGRLVQAGGSLRLSCAASGRTSVVHAMGWYRTAPGKERELVAAITSGGSTHYPDSVKGRFTISRDNAKNTVYLQMNSLKPEDTAVYYCNARDRRRTNLQDYWGQGTQVTVSS | low polyreactivity
QVQLRESGCGLVQAGGNLRLSCAASGNIFDADIMGWYGQAPGKERELVASITEGGSTNYADSVRCRFTISRDNAKNTVYLQMISLKPEDTAVYYCTAIAYPDIPTYFDHDSDYFYWGQGTQVTVSS | high polyreactivity
QVQLVESGGGLVQAGGSLRLSCAASGSTLNRNVMGWSRQAPGKERQMVAVITYGVGSTYYADSVKGRFTISRDNAKNTHYIQMNSLKPEDTAVYYCNKDPLVFDYWGQGTQVTVSS | low polyreactivity
QVQLVESGGGLVQAGGSLRLSCAASGYIFVRNAMGWYRQAPGKERELVAAISGSGGSTYYADSVKGRFTISRDNAKNSVYLQMNSLKPEDTAVYYCAARRYGYRYDQPYSNDYWGLGTQVTVSS | low polyreactivity
QVQLVESGGGLVQAGGSLRLSCAASGRIFRYYAIGWYRQAPGKERELVAAISKSGGGTFYADSVKGRFTISRDNAKNTVYLQMNSLKPEDTAVYYCAARDKGLGKHDYWGQGTQVTVSS | low polyreactivity
QVQLVESGGRLVQAGGSLRLSCAASGSIFRSYAMAWYRPAPGKERELVAGISYSGGSTYYADSVKGRFTISRDNAKNTVYLQMNSLKPEDTAVYYCNVDGGTYFFFVGAWGEYDYWGQGTQVTVSS | low polyreactivity
QVQLVESGVGLVQAGGSLRLSCASSGSIFGRYTMGWYRQAPGKERELVAAITLRGGSTYYADSVKGRFTISRDNAKNTVYLQMNSLNQEDSAVYYCANDGWKQSAYDYWGQGTQVTVSS | low polyreactivity
QVQLVESWGGLVQAGGSLRLSCAASGYISNAMGWYRQAPGKERELVAVITRGGSTNYADSVKGRFTISRDNAKNTVYLQMNSLKPEDTAVYYCAKDVPYRRVRSEYWGQGTQVTVSS | low polyreactivity
QVQLVESGGGLVQAGGSLRLSCAASGSTLRRYAMGWYRQAPGKERELVAAISGSGDSTYYADSVKGRFTISRDIAKNTVYLQMNSLKPEDTAVYYCNAVYAFNGYDYWGQGTQVTVSS | low polyreactivity
QVQLVESGGGLVQAGGSLRLSCAASGSIRYYVMGWYRQAPGKERELVAGINWSGGSTYYADSVKGRFTISRDNAKNTVYLQMNSLKPEDTAVYYCAARFVGVRDGYYYWGQGTQVTVSS | high polyreactivity
QVQLVESGGGLVQAGGSLRLSCAASGGTLPKYAMGWYRQAPGKERELVARITWNDGTTYYADSVKGRFTISRDNAKNTVYLQMNSLKPEDTAVYYCNTDRAYWFLYPFSYYYWGQGTQVTVSS | low polyreactivity
QVQLVESGGGLVQAGGSLRLSCAAYGFTIRRYAMGWSIQAPGKERELVAAITWSAGSTYYADSVKGRFTISRDNAKYTVYLQMNSLKPEDTAVYYCAARCKRWGADSGYYWGNGTQVTVSS | high polyreactivity

Sequence | polyreactivity (PSR sort gate)
QDQLEESGGGLVQAGGSLRLSCSASGSIFRRNAMGWYRQAPGKERELVAGITRSTGDTYYADSVKGRFTISRDNAKNTVYLQMNSMKPEDTAVYYCAACGSYYRDDYWGQGTQVTVSS | low polyreactivity
QVQLVESGGGLVQAGGSLRLSCAASGFTFGYYAMGWYRQAPGKERELVAAISWSGSSTYYSDSVKGRFTISRDNAKNTVYLQMNSLKPEATAVYYCAAELGDAYYYWGQGTQVTVSS | high polyreactivity
QVQLVETGGGLVQAGGSLRLSCAASGRTFYQYAMGWYRQAPGKERELVAGITFRGGSTNYADSVKGRFTISRDNAKNTVYLQMNSLKPEDTAVYYCAATVYGTVYKGRSQYEYGYWGQGTQVTVSS | high polyreactivity
QVQLVESGGGLVQAGGSLRLSCAASGRTFRGYAMGWYRQAPGKERELVAGITQRGGTTYYADSVKGRFTISRDNAKNTVYLQMNSLKPEDSAVYYCAAAFGRVTKYGYRNQYGYWGHGTQVTVSS | high polyreactivity
QVQLVESGGGLVQAGGSLRLSCAASGSIFLVYAMGWYRQAPGKERELVAAIRWSGGSTYYADSVKGRFTISRDNAKNTVYLQMNSLKPEDTAVYYCNAGESYSVKGGPYDSDYWGQGTQVTVSS | low polyreactivity
QVQLVESGGGLVQAGGSLRLSCAASGFIFWYNAMGWYRQAPGKERELVAAITTAGSTNYADSVKGRFTISRDNAKNTVYLQMNSLKPEDTAVYYCAAVSSYWGQGTQVTVSS | low polyreactivity
QVQLVESGGGLVQAGGSLRLSCAASGRTFTNYAMGWYRQAPGKERELVASISNAGSTNYADSVKGRFTISRDNAKNTVYLQMNSLNPEDTAVYYCAADFFAGTQRTFDYWGQGTQVTVSS | high polyreactivity
QVQLVESGGGLVQAGGSLRLSCAASGRIFGVNAMGWYRQAPGKERELVAAISRSGGSTYYADSVKGRFTISRDNAKNTVYLQMNSRKPEDTAVYYCATDHFYYRQKYWAYYYWGQGTQVTVSS | high polyreactivity
QVQLVESGGGLVQAGGSLRLSCAASGSTFHKYTMGWYRQAPGKEREFVAAITRNGGTTSYADSVKGRFTISRDNAKNTVYLQMNSLKPEDTAVYYCAVKWRRQINYDYWGQGTQVTVSS | high polyreactivity
QLQLQESGGGLVQAVVDLRQSCAESVNIFRDYIMGCYRQAPGKELEFVAGIDRGANTNFADSEKGRFTISRDNAKNTVYLQMNSLKPEDTAVYYCAVHTAIVPEFIYWGLGTQVTVSS | low polyreactivity
QVQLVESGGGLVQAGGSLRLSSAASGSISPQNVMGWYRQEPGKERELVAAITGGGSTNYADSVKGRFTISRDNAKNTVSLQMNSLKPEDTAVYYCNDDYFQDRLDYWGQGTQVTVSS | low polyreactivity
QVQLVESGGGLVQAGGSLRLSCAASGIIFGDNAMGWYRQAPGKERELVAAISSGGITYYADSVKGRFTISRDNAKNTVYLQMNSLKPEDTAVYYCAAGYYDFWYDYWGQGTQVTVSS | low polyreactivity
QVQLVESGGGLVQAGGSLRLSCAASGSTFGVNVMGWYRQAPGKERELVAAISRSGGRTYYADSVKGRFTISRDNAKNTVYLQMNSLKPEDTAVYYCNTRGYDYWGQGTQVTVSS | high polyreactivity
QVQLVESGGGLVQAGGSLRLSCAASGITFQRYAMGWYRQAPGKERELVAAITRGGSTNYADSVKGRFTISRDNAKNTVYLQMNSLKPEDTAVYYCAAGYKITSVYGFYYWGQGTQVTVSS | high polyreactivity
QVQLVESGGGLVQAGGSLRVSCAASGFIFSYNAMGWYRQEPGKERELVAAMSSGGGSTYYADSVKGRFTISRDNAKNTVYLQMNSLKPEDTAVSYCAARVAYTFGYWGQGTQVTVSS | high polyreactivity
QVQLVESGGGLVQAGGSLRLSCAASGLTFKYYTMGWYRQAPGKERELVAAISRSGTITYYADSVKGRFTISRDNAKNTVYLQMNSLKPEDTAVYYSNKASTYPSYDYWGHGTQVTVSS | high polyreactivity
QVQLVESGGGLVQAGGSLRLSCAASGSTFPDYAMGWYRQAPGKERELVAAISRRGVRTYYADSVKGRFTISRDNAKNTVYLQMNSLKPEDTAVYYCAAPSLLSGSDMDYWGQGTQVTVSS | high polyreactivity
QVQLVESGGGLVQAGGSLRLSCAASGLIYYRYAMGWYRQAPGKERELVAAITTNGARTYYADSVKGRFTISRDNAKNTVYLQMNSLKPEDTAVYYCAAYGAGKFWAEHNYWGQGTQVTVSS | high polyreactivity
QVQLVESGGGLVQAGGSLRLNCAASGRIFVGNTMGWDRQAPGKERELVAAITVRGGSTYYADSVKGRFTISRDNAKNTVYLQMNSLKPEDTAVYYCAARRRIFPPRFGYWGQGTQVTVSS | high polyreactivity
QVQLVESGGGLVQPGRSLRLSCAASGFTFYIYAMGWYRQAPGKERELVAAISGRGSSTYYADSVKGRFTISRDNAKNSVYLQMNSQTPEDTAVYYCAAGKSKYGVRGDYWGQGTQVTVSS | high polyreactivity
QVQLVVSGGGLVQAGGSLRLICAASGFSFFFYALGWYSQAPGKDRELHATINWSGASTYYADSVMGRFTISRDNATNTVYLQMNSLKPEDTAVYYCAKDGHYPLVYLAFDYWGQGTQVTGSS | low polyreactivity
